Measurements reported in patent US20240254190A1 (published 2024).
Where a chain is given by its changes, count along the chain named. One block for each binder: values may come before it.

Legend:
Assay in all cases: cytokine release
[1] = target: T1, p53 C135Y peptide on HLA-DRA*01:01 / HLA-DRB1*07:01 (human)
T1 peptide: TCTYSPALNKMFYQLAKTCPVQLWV

[2] = target: T2, p53 C135Y peptide on HLA-DQA1*02:01 / HLA-DQB1*02:02 (human)
T2 peptide: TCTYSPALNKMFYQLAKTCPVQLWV

[3] = target: T3, p53 C135Y peptide on HLA-DPA1*02:01 / HLA-DPB1*11:01 (human)
T3 peptide: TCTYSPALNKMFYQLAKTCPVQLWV

[4] = target: T4, p53 C135Y peptide on HLA-DQA1*01:01 / HLA-DQB1*05:01 (human)
T4 peptide: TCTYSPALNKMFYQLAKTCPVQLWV

[5] = target: T5, p53 C135Y peptide on HLA-DPA1*01:03 / HLA-DPB1*11:01 (human)
T5 peptide: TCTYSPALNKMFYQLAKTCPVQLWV

[6] = target: T6, p53 C135Y peptide on HLA-DPA1*01:03 / HLA-DPB1*02:01 (human)
T6 peptide: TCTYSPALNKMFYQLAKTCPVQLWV

[7] = target: T7, p53 C135Y peptide on HLA-DQA1*01:01 / HLA-DQB1*02:02 (human)
T7 peptide: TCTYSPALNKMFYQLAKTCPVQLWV

[8] = target: T8, p53 C135Y peptide on HLA-DQA1*02:01 / HLA-DQB1*02:01 (human)
T8 peptide: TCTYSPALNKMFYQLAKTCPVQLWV

[9] = target: T9, p53 C135Y peptide on HLA-DQA1*01:01 / HLA-DQB1*02:01 (human)
T9 peptide: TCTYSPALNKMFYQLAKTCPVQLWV

[10] = target: T10, p53 C135Y peptide on HLA-DQA1*02:01 / HLA-DQB1*05:01 (human)
T10 peptide: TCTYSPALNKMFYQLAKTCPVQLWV

[11] = target: T11, p53 C135Y peptide on HLA-DPA1*02:01 / HLA-DPB1*02:01 (human)
T11 peptide: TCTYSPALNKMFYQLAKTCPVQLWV

[12] = target: T12, p53 wild type peptide on HLA-DRA*01:01 / HLA-DRB1*07:01 (human)
T12 peptide: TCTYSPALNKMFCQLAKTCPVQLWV

[13] = target: T13, p53 C135Y peptide on HLA-DRA*01:01 / HLA-DRB3*01:01 (human)
T13 peptide: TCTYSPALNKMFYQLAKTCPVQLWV

[14] = target: T14, p53 C135Y peptide on HLA-DQA*01:01 / HLA-DRB4*01:01 (human)
T14 peptide: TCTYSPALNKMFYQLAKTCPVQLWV

[15] = target: T15, p53 R175H peptide on HLA-C*07:01 (human)
T15 peptide: HMTEVVRHC

[16] = target: T16, p53 wild type peptide on HLA-A*02:01 (human)
T16 peptide: HMTEVVRRC

[17] = target: T17, p53 R175H peptide on HLA-B*08:01 (human)
T17 peptide: HMTEVVRHC

[18] = target: T18, p53 R175H peptide on HLA-C*04:01 (human)
T18 peptide: HMTEVVRHC

[19] = target: T19, p53 R175H peptide on HLA-A*23:01 (human)
T19 peptide: HMTEVVRHC

[20] = target: T20, p53 R175H peptide on HLA-B*44:03 (human)
T20 peptide: HMTEVVRHC

[21] = target: T21, p53 wild type peptide on HLA-DRA*01:01 / HLA-DRB1*01:01 (human)
T21 peptide: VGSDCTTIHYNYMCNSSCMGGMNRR

binding result [1]: recognises
binding result [2]: no recognition
binding result [3]: no recognition
binding result [4]: no recognition
binding result [5]: no recognition
binding result [6]: no recognition
binding result [7]: no recognition
binding result [8]: no recognition
binding result [9]: no recognition
binding result [10]: no recognition
binding result [11]: no recognition
binding result [12]: no recognition
binding result [13]: no recognition
binding result [14]: no recognition
B1: 4316-D TCR (TCR, V domains shown)
Valpha: QQVMQIPQYQHVQEGEDFTTYCNSSTTLSNIQWYKQRPGGHPVFLIQLVKSGEVKKQKRLTFQFGEAKKNSSLHITATQTTDVGTYFCAESYSGGYQKVTFGIGTKLQVIP
Vbeta: EPEVTQTPSHQVTQMGQEVILRCVPISNHLYFYWYRQILGQKVEFLVSFYNNEISEKSEIFDDQFSVERPDGSNFTLKIRSTKLEDSAMYFCASSSFSNEQFFGPGTRLTVL

binding result [15]: no recognition
binding result [16]: no recognition
binding result [17]: no recognition
binding result [18]: no recognition
binding result [19]: no recognition
binding result [20]: no recognition
B2: 4141 IVS TCR (TCR, V domains shown)
Valpha: QTVTQSQPEMSVQEAETVTLSCTYDTSENNYYLFWYKQPPSRQMILVIRQEAYKQQNATENRFSVNFQKAAKSFSLKISDSQLGDTAMYFCAFMAYMEYGNKLVFGAGTILRVKS
Vbeta: B1 Vbeta with S94C, S95K, S96G, F97I, S98T, N99D, E100T, F102Y

binding result [21]: no recognition
B3: 4304 TCR-4 (TCR, V domains shown)
Valpha: QKEVEQNSGPLSVPEGAIASLNCTYSDRGSQSFFWYRQYSGKSPELIMFIYSNGDKEDGRFTAQLNKASQYVSLLIRDSQPSDSATYLCAVRGGNTGFQKLVFGTGTRLLVSP
Vbeta: AVISQKPSRDICQRGTSLTIQCQVDSQVTMMFWYRQQPGQSLTLIATANQGSEATYESGFVIDKFPISRPNLTFSTLTVSNMSPEDSSIYLCSVRSEDTQYFGPGTRLTVL

binding result [21]: no recognition
B4: 4304 TCR-K (TCR, V domains shown)
Valpha: KDQVFQPSTVASSEGAVVEIFCNHSVSNAYNFFWYLHFPGCAPRLLVKGSKPSQQGRYNMTYERFSSSLLILQVREADAAVYYCAVSGYQLIWGAGTKLIIKP
Vbeta: GVAQSPRYKIIEKRQSVAFWCNPISGHATLYWYQQILGQGPKLLIQFQNNGVVDDSQLPKDRFSAERLKGVDSTLKIQPAKLEDSAVYLCASSLDRRGGRETQYFGPGTRLLVL

binding result [21]: no recognition
B5: 4304 TCR-2 (TCR, V domains shown)
Valpha: QSVSQHNHHVILSEAASLELGCNYSYGGTVNLFWYVQYPGQHLQLLLKYFSGDPLVKGIKGFEAEFIKSKFSFNLRKPSVQWSDTAEYFCAVTFMDTGRRALTFGSGTRLQVQP
Vbeta: GVSQSPSNKVTEKGKDVELRCDPISGHTALYWYRQSLGQGLEFLIYFQGNSAPDKSGLPSDRFSAERTGGSVSTLTIQRTQQEDSAVYLCASSPRGGDYEQYFGPGTRLTVT
